{
  "source": "paper PMC10588934",
  "molecular_target": "dopamine receptor D1 fused to LgBiT (UniProt P21728)",
  "sequence (P21728 whole entry, the tested form may be a part)": "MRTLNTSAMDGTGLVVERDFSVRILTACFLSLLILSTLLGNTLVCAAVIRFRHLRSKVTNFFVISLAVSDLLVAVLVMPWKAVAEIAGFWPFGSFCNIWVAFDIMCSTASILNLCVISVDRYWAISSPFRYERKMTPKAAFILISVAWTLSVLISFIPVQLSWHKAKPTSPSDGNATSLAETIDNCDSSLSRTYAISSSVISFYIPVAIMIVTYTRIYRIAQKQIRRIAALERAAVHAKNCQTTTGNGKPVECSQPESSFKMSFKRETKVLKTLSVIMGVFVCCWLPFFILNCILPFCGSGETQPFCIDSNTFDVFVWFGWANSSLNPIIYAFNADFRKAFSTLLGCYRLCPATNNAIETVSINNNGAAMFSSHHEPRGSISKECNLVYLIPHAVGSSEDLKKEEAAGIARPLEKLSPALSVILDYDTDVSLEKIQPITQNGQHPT",
  "experiment": "split reporter",
  "data": [
    {"substance": "SmBiT-miniGs (domain or fragment)", "values": [
      {"measurement": "DDR (luminescence with drug / without drug)", "value": 1.6}
    ]}
  ]
}
